The record followed here is patent publication US20130196348A1 (ACTELION PHARMACEUTICALS, published 2013).

The labels stand for the following.
T1: human GALR2 (Galanin Receptor 2) (human, UniProt O43603 1-387)
T1 sequence: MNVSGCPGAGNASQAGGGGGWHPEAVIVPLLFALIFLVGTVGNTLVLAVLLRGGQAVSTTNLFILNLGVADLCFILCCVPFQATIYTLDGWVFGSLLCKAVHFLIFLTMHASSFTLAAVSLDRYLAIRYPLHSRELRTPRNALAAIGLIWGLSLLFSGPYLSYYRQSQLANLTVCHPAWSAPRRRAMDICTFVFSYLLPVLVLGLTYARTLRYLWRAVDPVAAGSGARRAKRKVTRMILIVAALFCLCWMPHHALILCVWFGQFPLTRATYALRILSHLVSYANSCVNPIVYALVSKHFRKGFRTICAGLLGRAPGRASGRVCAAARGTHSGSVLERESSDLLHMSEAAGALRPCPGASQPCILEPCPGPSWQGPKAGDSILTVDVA

For this experiment, the target named is T1, human GALR2 (Galanin Receptor 2). Briefly: cell-based or functional assay.
Regarding AWTPQAMLYLKGAQG [AWTPQAMLYLKGAQG (SEQ ID NO: 23)], the “FLIPR EC50” value came to 0.7 nM.
Turning to NWTPQAALYLKGAQG [NWTPQAALYLKGAQG (SEQ ID NO: 27)], the “FLIPR EC50” value was found to be 3.4 nM.
Consider NWTPQAMLYLKGAQGH [rat Neuropeptide Q (SEQ ID NO: 15)], for which the “Aequorin EC50” value was 5.06 nM.
NWTPQAMLYLKPAQG [NWTPQAMLYLKPAQG (SEQ ID NO: 38)]: the “FLIPR EC50” value stood at 20 nM.
For the molecule NWTPQAMLYLKGPQG [NWTPQAMLYLKGPQG (SEQ ID NO: 39)], the “FLIPR EC50” value turned out to be 0.3 nM.
As to NWTPQAMLYLKGAQP [NWTPQAMLYLKGAQP (SEQ ID NO: 41)], the “FLIPR EC50” value stood at 0.3 nM.
On the same count and under the same terms, then NWTPQAMLYLKGAPG [NWTPQAMLYLKGAPG (SEQ ID NO: 40)], with 0.2 nM; and NWTPQAMLYLKGA [NWTPQAMLYLKGA (SEQ ID NO: 18)], with 4.3 nM; and NWTPAAMLYLKGAQG [NWTPAAMLYLKGAQG (SEQ ID NO: 26)], with 12.5 nM.
Turning to NWTPQAMLYLKGAQGRRFISDQS [human pro Neuropeptide Q (36-58) (SEQ ID NO: 16)], the “Aequorin EC50” value came to 17.6 nM.
For the molecule NWTAQAMLYLKGAQG [NWTAQAMLYLKGAQG (SEQ ID NO: 25)], the “FLIPR EC50” value was found to be 3.6 nM.
Regarding NWTPQAMLYLKGAQA [NWTPQAMLYLKGAQA (SEQ ID NO: 32)], the “FLIPR EC50” value is 2 nM.
On the same count and under the same terms, then WTPQAMLYLKGAQG [WTPQAMLYLKGAQG (SEQ ID NO: 22)], with 4.8 nM.
NWTPQAMLYLKGAQG [human Neuropeptide Q-Glycine (SEQ ID NO: 14)]: the “Aequorin EC50” value was 5.7 nM and the “FLIPR EC50” value turned out to be 4.2 nM.
In the case of NWTPQAMLYLKG [NWTPQAMLYLKG (SEQ ID NO: 19)], the “FLIPR EC50” value is 6.7 nM.
Still for that read-out and setting: for NWPPQAMLYLKGAQG [NWPPQAMLYLKGAQG (SEQ ID NO: 34)] the value was 0.05 nM; for NWTPQAMLYLKGAAG [NWTPQAMLYLKGAAG (SEQ ID NO: 31)], 0.1 nM.
For SPNPQLLTIPEAATILLASLQKSPEDEEKNFDQTRFLEDSLLNW [human pro Neuropeptide Q (73-116) (SEQ ID NO: 17)], the “Aequorin EC50” value is greater than 10000 nM.
NWTPQAMLYLKAAQG [NWTPQAMLYLKAAQG (SEQ ID NO: 30)]: the “FLIPR EC50” value is 47 nM.
The same measure, in the same setting: for NWTPQAMLYLAGAQG [NWTPQAMLYLAGAQG (SEQ ID NO: 29)] the value was 9.6 nM; for NWTPQAMAYLKGAQG [NWTPQAMAYLKGAQG (SEQ ID NO: 28)], 0.8 nM; for NWTPQAMLYLK [NWTPQAMLYLK (SEQ ID NO: 20)], 1.9 nM.
For NWTPPAMLYLKGAQG [NWTPPAMLYLKGAQG (SEQ ID NO: 35)], the “FLIPR EC50” value came to 97 nM.
On to NWAPQAMLYLKGAQG [NWAPQAMLYLKGAQG (SEQ ID NO: 24)], for which the “FLIPR EC50” value is 10.9 nM.
On the same count and under the same terms, then NWTPQPMLYLKGAQG [NWTPQPMLYLKGAQG (SEQ ID NO: 36)], with 55 nM; and NWTPQAMLYL [NWTPQAMLYL (SEQ ID NO: 21)], with 14 nM; and NWTPQAMLYLPGAQG [NWTPQAMLYLPGAQG (SEQ ID NO: 37)], with 296 nM.
On the same count and under the same terms, for PWTPQAMLYLKGAQG [PWTPQAMLYLKGAQG (SEQ ID NO: 33)] the value was 0.1 nM.
